Data: patent publication US20210063414A1, “METHODS FOR PREVENTING AND/OR TREATING BONE LOSS CONDITIONS BY MODULATING IRISIN” (Dana-Farber Cancer Institute, Inc., priority 2018, published 2021)

Experiments:
Assay in all cases: Crosslinking/co-immunoprecipitation/mass spectrometry (TMT quantitative proteomics) to identify irisin receptors
Assay type in all cases: binding
[1] = target: T1, MLO-Y4 cell surface proteins (Mus musculus, UniProt O88689); details: TMT ratio, Pcdha4 Protocadherin alpha-4
T1 construct: endogenous in cells; host or cells: MLO-Y4
T1 sequence (O88689 30-947): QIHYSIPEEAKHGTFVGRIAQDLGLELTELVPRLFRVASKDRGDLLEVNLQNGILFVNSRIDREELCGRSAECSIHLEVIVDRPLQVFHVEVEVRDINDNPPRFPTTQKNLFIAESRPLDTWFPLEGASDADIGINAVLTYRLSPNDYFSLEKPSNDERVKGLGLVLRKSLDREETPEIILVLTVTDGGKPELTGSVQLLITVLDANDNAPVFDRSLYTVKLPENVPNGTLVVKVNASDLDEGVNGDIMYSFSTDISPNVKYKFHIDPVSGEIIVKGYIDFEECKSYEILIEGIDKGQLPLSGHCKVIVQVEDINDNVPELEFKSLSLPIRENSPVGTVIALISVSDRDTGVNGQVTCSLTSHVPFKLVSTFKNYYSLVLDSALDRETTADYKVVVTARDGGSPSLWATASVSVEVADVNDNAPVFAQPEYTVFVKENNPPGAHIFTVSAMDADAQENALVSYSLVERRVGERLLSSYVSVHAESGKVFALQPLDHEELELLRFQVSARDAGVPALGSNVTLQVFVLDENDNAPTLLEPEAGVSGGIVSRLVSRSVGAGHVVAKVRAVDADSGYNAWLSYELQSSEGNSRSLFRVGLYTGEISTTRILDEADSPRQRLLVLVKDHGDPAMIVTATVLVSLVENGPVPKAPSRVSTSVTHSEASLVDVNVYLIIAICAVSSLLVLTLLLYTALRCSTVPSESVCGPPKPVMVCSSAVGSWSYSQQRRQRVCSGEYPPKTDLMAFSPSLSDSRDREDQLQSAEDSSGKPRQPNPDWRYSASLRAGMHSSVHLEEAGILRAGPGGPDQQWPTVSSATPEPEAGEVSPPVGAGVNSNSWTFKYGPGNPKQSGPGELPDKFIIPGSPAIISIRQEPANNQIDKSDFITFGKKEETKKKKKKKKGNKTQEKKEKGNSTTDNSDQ
How it was run: (§1)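 Relative protein abundance came from 6-plex TMT MS3 quantitation on an Orbitrap Fusion Lumos, after in-gel trypsin digestion of Coomassie-stained SDS-PAGE lanes. Input was a Ni-NTA pulldown (250 mM imidazole elution) of lysates from murine MLO-Y4 cells. These cells were treated on ice with His-tagged irisin or adipsin (10 nM, 20 min) in serum-free medium, then crosslinked with 1.5 mM DTSSP for 30 min.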

[2] = target: T2, MLO-Y4 cell surface proteins (Mus musculus, UniProt Q8VHN7); details: co-precipitated protein Gpr98 (GPR98_MOUSE)
T2 construct: endogenous in cells; host or cells: MLO-Y4
How it was run: as §1

[3] = target: T3, MLO-Y4 cell surface proteins (Mus musculus, UniProt Q9D125); details: co-precipitated protein Mrps25 (RT25_MOUSE)
T3 construct: endogenous in cells; host or cells: MLO-Y4
How it was run: as §1

B1: irisin: secreted cleaved form of FNDC5; recombinant human/mouse irisin with C-terminal his tag produced in HEK293 cells (protein)
chain: DSPSAPVNVTVRHLKANSAVVSWDVLEDEVVIGFAISQQKKDVRMLRFIQEVNTTTRSCALWDLEEDTEYIVHVQAISIQGQSPASEPVLFKTPREAEKMASKNKDEVTMKE
modifications: left off: small tags and cut ends
notes: secreted cleaved form of FNDC5; recombinant human/mouse irisin with C-terminal his tag produced in HEK293 cells
With B1 as the molecule, how does the irsin/adipsin [1] read?
The irsin/adipsin was 4.39.

And the TMT signal-to-noise ratio [2]?
The TMT signal-to-noise ratio was 249.388.

What about the “irisin/adipsin TMT signal-to-noise ratio” value [2] of the same molecule?
Its value is 0.403.

And the TMT signal-to-noise ratio [3]?
Its TMT signal-to-noise ratio is 10.7103.

What about the “irisin/adipsin TMT signal-to-noise ratio” value [3] of the same molecule?
The value was 0.126.
